Laboratory results reported in the DeepSol protein solubility set.

experiment: soluble on expression in E. coli; label from the status in PepcDB or PDB records

Sequence	soluble on expression in E. coli
SSSESEKDKERLIQAAKMFFFHVQDLASVINTLTELFSRSMNTQILLMAVRNNSYIKDFFEQMLKIFKEMQSVVDARHDKIQKESLCSKVAMAMCSVVQKSTNVEELHQSAKEVFKSAHTPVIISVLNSSNILGSLESSLSHLMKFPIMNLQLSDFYTEDTKEQSDVTTSERTRSPPGSSKTTMIDTLKKLQDVLKTEDSKNPTKSAADLLEQIVKAMGPILEILQKAIKTMEMNISVFKKASDK	soluble
MGFDLDVEKKKENRNIPQANNLKIKVIGVGGAGNNAINRMIEIGIHGVEFVAVNTDLQVLEASNADVKIQIGENITRGLGAGGRPEIGEQAALESEEKIREVLQDTHMVFITAGFGGGTGTGASPVIAKIAKEMGILTVAIVTTPFYFEGPERLKKAIEGLKKLRKHVDTLIKISNNKLMEELPRDVKIKDAFLKADETLHQGVKGISELITKRGYIRLTSRFARIESVMKDAGAAILGIGVGKGEHRAREAAKKAMESKLIEHPVENASSIVFNITAPSNIRMEEVHEAAMIIRQNSSEDADVKFGLIFDDEVPDDEIRVIFIATRFPDEDKILFPEGDIPAIYRYGLEGLL	soluble
MSLSKVRYGVVSTAKVAPRFIEGVRLAGNGEVVAVSSRTLESAQAFANKYHLPKAYDKLEDMLADESIDVIYVATINQDHYKVAKAALLAGKHVLVEKPFTLTYDQANELFALAESCNLFLMEAQKSVFIPMTQVIKKLLASGEIGEVISISSTTAYPNIDHVTWFRELELGGGTVHFMAPYALSYLQYLFDATITHASGTATFPKGQSDSQSKLLLQLSNGVLVDIFLTTRLNLPHEMIIYGTEGRLIIPHFWKTTHAKLVRNDTSARTIQVDMVSDFEKEAYHVSQMILEGQRVSHIMTPQLTLSGVKIIEDLYRSWGKEGHHHHHH	soluble
MGSDKIHHHHHHMSVSPEFTRGKIHDVVVKPLGKFLDERGWLAELFRSDETDPATMPVMAYVSMTRPGIVRGPHEHVDQTDWFCFIGPSNFKVYLWDSRPDSPTHGVKQTLFAGIDAPMSVIVPPGVVHAYKNVGGVDGIVFNAPNRLYAGEGKSSPVDEIRHEDVAGSPFILD	not soluble
MAIHNRAGQPAQQSDLINVAQLTAQYYVLKPEAGNAEHAVKFGTSGHRGSAGRHSFNEPHILAIAQAIAEERAKNGITGPCYVGKDTHALSEPAFISVLEVLAANGVDVIVQENNGFTPTPAVSNAILVHNKKGGPLADGIVITPSHNPPEDGGIKYNPPNGGPADTNVTKVVEDRANALLAGGLQGVKRISLDAAMASGHVKAVDLVQPFVEGLADIVDMAAIQKAGLTLGVDPLGGSGIEYWKRIAEHYKLNLTLVNDQVDQTFRFMHLDKDGAIRMDCSSECAMAGLLALRDKFDLAFANDPDYDRHGIVTPAGLMNPNHYLAVAINYLFQHRPLWGKDVAVGKTLVSSAMIDRVVNDLGRKLVEVPVGFKWFVDGLFDGSFGFGGEESAGASFLRFDGTPWSTDKDGIIMCLLAAEITAVTGKNPQEHYNELAARFGAPSYNRLQASATSAQKAALSKLSPEMVSASTLAGDPITARLTAAPGNGASIGGLKVMTDNGWFAARPSGTEDAYKIYCESFLGEEHRKQIEKEAVEIVSEVLKNA	soluble
SMQQLVLDPGFLGLEPLLDLLLGVHQELGASELAQDKYVADFLQWAEPIVVRLKEVRLQRDDFEILKVIGRGAFSEVAVVKMKQTGQVYAMKIMNKWDMLKRGEVSCFREERDVLVNGDRRWITQLHFAFQDENYLYLVMEYYVGGDLLTLLSKFGERIPAEMARFYLAEIVMAIDSVHRLGYVHRDIKPDNILLDRCGHIRLADFGSCLKLRADGTVRSLVAVGTPDYLSPEILQAVGGGPGTGSYGPECDWWALGVFAYEMFYGQTPFYADSTAETYGKIVHYKEHLSLPLVDEGVPEEARDFIQRLLCPPETRLGRGGAGDFRTHPFFFGLDWDGLRDSVPPFTPDFEGATDTCNFDLVEDGLTAMVSGGGETLSDIREGAPLGVHLPFVGYSYSCMALRDSEVPGPTP	soluble
MSHAVSRLRQERLARSLKPFVARGSRMPRCEGCRLLPSYCMCAWRPRVEARAGMCLVMHDIEALKPTNTGWLIADTVADTFAFGWSRTEVDPRLLELLADPQWQPYLVFPGEYVAAERVVNEVAPLVEGKRPLFILLDATWTEARKMFRKSPYLEPFPVLSLLPEQLSRYRLRRSTRGEHLCTAEVAALCLELAGDEAAGEALGAYLEVFSERYLGAKRHIPLDEASPAHRALAPFRG	not soluble
MGSDKIHHHHHHMIVETMTMVEFEEGLKRTRTVFVPFGSVEEHGCHLPLSTDTIQAYEVGKKAALQISLFVAPPIHYGSCRSTSCHPGTISITTATLKCLMKDIVRSLYAQGMRNFIILTGHAGGSHRMALQDAGEELLPEIPDIRIAVVTEYELASREGKGIIETEGDAHAGEIETSRILHTHPHLVQGRGEREFPSFPTGILVRNKRKYWPNGVWGDPAKATAEKGKRLEELVVKKIVELAAALEQFQE	not soluble
TVPITSAKAAELPPGNYRLVVFELENFQGRRAEFSGECSNLADRGFDRVRSIIVSAGPWVAFEQSNFRGEMFILEKGEYPRWNTWSSSYRSDRLMSFRPIKMDAQEHKISLFEGANFKGNTIEIQGDDAPSLWVYGFSDRVGSVKVSSGTWVGYQYPGYRGYQYLLEPGDFRHWNEWGAFQPQMQSLRRLRDKQWHLEGSFPVLATEPPK	soluble
MGHHHHHHHHHSSGHIDDDDKHMLEASAKATMGQGEQDHFVLKSGHAMPAVGLGTWRAGSDTAHSVRTAITEAGYRHVDTAAEYGVEKEVGKGLKAAMEAGIDRKDLFVTSKIWCTNLAPERVRPALENTLKDLQLDYIDLYHIHWPFRLKDGAHMPPEAGEVLEFDMEGVWKEMENLVKDGLVKDIGVCNYTVTKLNRLLRSAKIPPAVCQMEMHPGWKNDKIFEACKKHGIHITAYSPLGSSEKNLAHDPVVEKVANKLNKTPGQVLIKWALQRGTSVIPKSSKDERIKENIQVFGWEIPEEDFKVLCSIKDEKRVLTGEELFVNKTHGPYRSARDVWDHEN	soluble
MSLKNITIGMVGVGRIGRMHVANMLAVAETLKERDLNIEIVLADAMPGFAEQVGADMGVKAAASVDKLIEDGVDALFIATSTAGHVDVLRKGIAAKLPMFCEKPIASDVPESLNIIREIDAAGATVQVGHQRRFDLGYQEAKRRLDAGDLGWLHSLKAVSSDAFPPPVSYCATSGGLFRDVSLHDFDIIRWLTGQDIVEVYAKGSNNGDPEIGAVGDIDTGAALLTLADGTLATAIATRYNGAGHDVRLDVMGSKDSTIVGLDEKSAFASAEEGIDFPTGESHPTFAERFADAYKNECIAFVELILGERENPCTPADAVAAAIVADAAQLSLVTGEPVKIPTVREILEGSAQPVEVRALVPSEGHHHHHH	soluble
MIKGMKTRGERLKARRLELKLTLKQVAEAVGISLPGVQNLERGDVMPSLEIGLSLAKCLRKPVQWILYGTESDPDRVPVIGTTETGPDRDWQPGEPANTERFLPFVSQRNTVYALTVGNQIQRNYQPGDVILVDSSLTLVPGEDVLVCDNNGEITIQRLARYDEQHYYLDSANSQRVIHDKSDLQFVHQVVGTIKSFMVEGR	not soluble
MSDSFGVYVHVPFCSSRCGYCDFNTYTPGELGGTASPESYLDALEKELELAAASGTTRPATTVFIGGGTPSMLGASGLTRVLSAVRNTIGIAPGAEVTTESNPETTSPEFFSELLDAGYNRISLGMQSASSSVLRVLERKHTPGRAFDAALEAMNAGFLHVNLDMIYGTPTETDDDVRLTLERALDTGVDHISAYSLIVEDGTAMARKVHKGQLPPPNEDVYADRYGLIDTALRAQGFDWYEVSNWAKPGGECQHNLGYWLDGDWWGAGPGAHSHIASRRFFNVKHPSTYAQHLADGQLPIKEEELLDSTERHEESVMLGLRLRQGLELSRFTEAERAVIEKYVGLKLLHIYDGRVASTLQGRLLIDGIIADILVAYLEHHHHHH	not soluble
MKFETINQESIAKLMEIFYEKVRKDKDLGPIFNNAIGTSDEEWKEHKAKIGNFWAGMLLGEGDYNGQPLKKHLDLPPFPQEFFEIWLKLFEESLNIVYNEEMKNVILQRAQMIASHFQNMLYKYGGH	soluble
DGPGDGFTILSSKSLVLGQKLSLTQSDISHIGSMRVEGIVHPTTAEIDLKEDIGKALEKAGGKEFLETVKELRKSQGPLEVAEAAVSQSSGLAAKFVIHCHIPQWGSDKCEEQLEETIKNCLSAAEDKKLKSVAFPPFPSGRNCFPKQTAAQVTLKAISAHFDDSSASSLKNVYFLLFDSESIGIYVQEMAKL	soluble
MINMTRKLYYEDAYLKEAKGRVLEIRDNAILLDQTIFYPTGGGQPHDRGTINGVEVLDVYKDEEGNVWHVVKEPEKFKVGDEVELKIDWDYRYKLMRIHTGLHLLEHVLNEVLGEGNWQLVGSGMSVEKGRYDIAYPENLNKYKEQIISLFNKYVDEGGEVKIWWEGDRRYTQIRDFEVIPCGGTHVKDIKEIGHIKKLKRSSIGRGKQRLEMWLE	soluble
MITTRTAKQCGQADYGWLQARYTFSFGHYFDPTLLGYASLRVLNQEVLAPGASFQPRTYPKVDILNLILDGEAEYRDSDGNHVQAKAGEALLLAAQPGISYSEHNISKVKPLTRMQLWLDACPERENTLVQKIPLLAAQQQLLASPDGEQNSLQLRQQVWVHHITLEKGESLNFQLHGPRAYLQSIHGTFHAMTHNEEREALTCGDGAFIRDEPNITLVADTPLRALLVDLPV	not soluble
MKHLMKMWNPWWIERKVPASKKRISRPETLETILKLLDIREVICITGVRRCGKSTIMYQAIDHLIGKGVEPENILYFNLDEPFEDKSIGLLDRIFGEYIELHVPKGRKYIFLDEIQNVKDWEQWVKKFYDLHGEDIKFVLTGSNSSMLSDQLSILLTGRMITQHVFPLSFKEYLDFESFELKDPDIQRNEILHYFNKYLFKGGFPEVVLENDMDINHLRLTEYFNSILLRDIVVGRNIRESAKLIELANYSLSNVSTLLSYSKISNATGLSVNSLKEYLLFLEQAYLIYQLNFFSYSVKDSISIKMPKKVYCIDNGLRNSAAFTFSADEGRLAENLAFVELKRRKVEFFYWKEKREVDFVIKGIDGALTGINCTCTDHIRQGEINALLELKEQFGEKVSRLILLTKNLEKKENDISYIPLWKWVLGTRLSK	not soluble
MASKMDTETHYSDVWVVIPAFNEAAVIGKVVTDVRSVFDHVVCVDDGSTDGTGDIARRSGAHLVRHPINLGQGAAIQTGIEYARKQPGAQVFATFDGDGQHRVKDVAAMVDRLGAGDVDVVIGTRFGRPVGKASASRPPLMKRIVLQTGARLSRRGRRLGLTDTNNGLRVFNKTVADGLNITMSGMSHATEFIMLIAENHWRVAEEPVEVLYTEYSKSKGQPLLNGVNIIFDGFLRGRMPR	not soluble
MSLRTTHIPLVAIVLASVCSSLAAPKAGGLELIILHNNDMHARFEQTGAYSNDCQPSDVASNRCYGGFARVAHKVREYRATEASGGLPVLYLNAGDTYTGTPWFSVFKDNITAAFLNILKPDAISLGNHEFDLGVEGLVPFLNEVDFPVLVTNLDLSKTPEMQTSRSLQRSIIFTKAGVRIGVIGYLTPETKQLAPINTVEFLDEIEEINKEATSLKNQGVNILIALGHSGLERDKEIAAQCPDVDLVIGGHSHTFLYSGTAPDVEDPAGPYPVMVKNAAGKEVPVVQAYAYTKYLGYLHLQFDTEGNLIELDGTPLLLNGTVERDSDVLQLLELYRPGILALDAQIGHSNVFLDSSRCRFEECNIGNMIADSLVITYATTREQSNDGFWTDAAIGFIQGGGIRASVNAGPITMKDLKTVLPFGNAMVVTDITGAQLRQMLEQSVHRYDGVSGYGEFLQMAGVNVEYDLSRPPMQRVVHVKVRCARCQVPAYEELQDDGVYRVILSQFLYDGGDGYEMLPGSPRQLLTFGEYEITEEYLKRYSPIYPAIEWRIRMQGQPNVTEGHHHHHH	soluble
